The source of these data is patent publication US11419945B2, “Antigen binding proteins” (Glaxo Group Limited, priority 2011, dated 2022).

Residue numbers refer to the chain shown, from its start.

Experiment [1] deals with T1, Human in house BCMA (Homo sapiens, UniProt Q02223).
T1 construct: CD33 signal peptide (N); TEV site (internal); Fc (C); made in house
The experiment is described as follows: ProteOn analysis of CA8 chimeric and humanised constructs, human in house BCMA. Conditions: for off rate: Run 2, ProteOn, recombinant human BCMA, no affinity values obtained. It is filed as binding. As for the experimental part:
(§1) The initial screen of CA8 chimeric and humanised variants was carried out on the ProteOn XPR36 (Biorad). The method was as follows; Protein A was immobilised on a GLC chip (Biorad, Cat No: 176-5011) by primary amine coupling, CA8 variants were then captured on this surface and recombinant human BCMA (in house or commercial US Biological, B0410) materials (run 2 only)) passed over at 256, 64, 16, 4, 1 nM with a 0 nM injection (i.e. buffer alone) used to double reference the binding curves, the buffer used is the HBS-EP buffer. 50 mM NaOH was used to regenerate the capture surface. The data was fitted to the 1:1 model using the analysis software inherent to the ProteOn XPR36. Run 1 corresponds to the first screen of humanised CA8 variants (JO to J5 series) and run 2 to the second screen of humanised CA8 variants (J5 to J9 series). Both runs were carried out at 25° C.

Experiment [2] concerns the target T2, Human commercial BCMA (Homo sapiens, UniProt Q02223).
T2 construct: purchased US Biological B0410
T2 sequence (Q02223 1-184): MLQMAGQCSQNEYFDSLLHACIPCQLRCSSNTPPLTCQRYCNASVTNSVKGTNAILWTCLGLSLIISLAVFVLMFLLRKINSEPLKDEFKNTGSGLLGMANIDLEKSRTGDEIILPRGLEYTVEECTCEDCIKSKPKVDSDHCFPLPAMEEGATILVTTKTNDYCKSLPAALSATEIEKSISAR
Kind of experiment: ProteOn analysis of CA8 chimeric and humanised constructs, commercial human BCMA. Conditions: Run 2, commercial human BCMA, 25° C. Format: binding. As for the experimental part: as §1

Experiment [3] deals with Cyno in house BCMA. Kind of experiment: ProteOn analysis of CA8 chimeric and humanised constructs, cyno in house BCMA. It is filed as binding. Conditions: Run 2, Cyno in house BCMA, 25° C.
Experiment [4] addresses T2, Human commercial BCMA. Kind of experiment: BIAcore analysis of J6M0 and J9M0, human commercial BCMA. It is filed as binding. As for the experimental part: Protein A was immobilised on a CMS chip (GE Healthcare, Cat No: BR-1005-30) by primary amine coupling and this surface was then used to capture the antibody molecules. Recombinant human BCMA (US Biological, B0410) was used as analyte at 256 nM, 64 nM, 16 nM, 4 nM and 1 nM. Regeneration of the capture surface was carried out using 50 mM NaOH. All binding curves were double referenced with a buffer injection (i.e. 0 nM) the data was fitted to the using the 1:1 model inherent to T100 evaluation software. The run was carried out at 25° C. and 37° C. for experiment 1 and only 37° C. for experiment 2 using HBS-EP as the running buffer.
(In general: Surface plasmon resonance follows binding to a sensor surface in real time, without labels.)

Experiment [5] has as its system NCI-H929 tumours. Kind of experiment: NCI-H929 murine xenograft. Format: in vivo, CB.17 SCID mice. As for the experimental part:
FIG. 19: Effect of dose escalation of J6M0 and drug conjugated J6M0 on the growth and establishment of NCI-H929 cells in CB.17 SCID mice. Calculated tumour volumes of NCI-H929 tumours in CB17 SCID mice following twice weekly intraperitoneal dosing of either 50 or 100 ug J6M0 anti-BCMA or IgG1 isotype control unconjugated, or conjugated to MMAE or MMAF for 2 weeks. Data points represent mean tumour volume of n=5 per group
The cell line selected for xenograft studies was NCI-H929 which is sensitive to ADC and ADCC killing in vitro. Studies were carried out in immunocompromised CB.17 SCID mice which lack T and B cells but maintain NK cells to allow for ADCC activity.
In order to independently analyze both the ADCC and ADC activities of J6M0 we tested J6M0 antibody in the presence and absence of MMAF or MMAE conjugation. By testing the unconjugated J6M0, any anti-tumour effects could be attributed to some combination of ADDC and functional inhibitory activity.
Mice with NCI-H929 tumours that had reached a volume of 200 mm^3 on average were treated with a human IgG1 control or the J6M0 antibody (unconjugated, MMAE or MMAF) twice weekly at a dose of 50 ug or 100 ug, for 2 weeks.

Experiment [6] concerns the target T3, ARH77-hBCMA 10B5 BCMA expressing transfectant cells (Homo sapiens, UniProt Q02223).
T3 construct: expressed in transfected cells; host or cells: ARH77 (clone 10B5)
T3 sequence (Q02223 1-184): T2 sequence (Q02223 1-184)
The experiment is described as follows: FACS binding of humanised CA8 to BCMA transfected cells. Conditions: varying concentrations, 20 minutes at RT. As for the experimental part: (§2) ARH77-hBCMA 10B5 BCMA expressing transfectant cells or H929 cells were stained with either chimeric CA8 or humanised variants of CA8 designated J6M0, J6M1, J6M2, J9M0, J9M1, J9M2 at varying concentrations for 20 minutes at RT. Cells were then washed with FACS buffer (PBS+0.5% BSA+0.1% sodium azide) to remove unbound antibody. Cells were incubated with a secondary PE labelled anti-human IgG antibody for 15 minutes at RT and then washed with FACS buffer to remove unbound antibody. Cells were analysed by FACS and mean fluorescence intensity (MFI) values measured to determine binding.
For orientation: In flow cytometry, cells or beads pass a laser one at a time.

Experiment [7] has as its system H929 cells. Kind of experiment: FACS binding of humanised CA8 to H929 cells. The arrangement: species or system human. The following applies: varying concentrations, 20 minutes at RT. As for the experimental part: as §2
The target in experiment [8] is T2, Human commercial BCMA. Kind of experiment: BIAcore analysis J7 to J9 series, human commercial BCMA. The following applies: 37° C.; for ka: in M-1s-1 (unit assumed); for kd: in s-1 (unit assumed). It is filed as binding. As for the experimental part:
Protein A was immobilised on a CMS chip (GE Healthcare, Cat No: BR-1005-30) by primary amine coupling and this surface was then used to capture the antibody molecules. Recombinant human BCMA (US Biological, B0410) was used as analyte at 256 nM, 64 nM, 16 nM, 4 nM and 1 nM. Regeneration of the capture surface was carried out using 50 mM NaOH. All binding curves were double referenced with a buffer injection (i.e. 0 nM) and the data was fitted to the using the 1:1 model inherent to T100 evaluation software. The run was carried out at 37° C., using HBS-EP as the running buffer.

In experiment [9] the test system is Cyno in house BCMA. Kind of experiment: BIAcore analysis J7 to J9 series, cyno in house BCMA. Format: binding. The following applies: 37° C.; for ka: in M-1s-1 (unit assumed); for kd: in s-1 (unit assumed).
[10] abbreviates: Run 2, Human in house BCMA, ProteOn, 25° C.

Chain of Cyno in house BCMA (as listed by the source): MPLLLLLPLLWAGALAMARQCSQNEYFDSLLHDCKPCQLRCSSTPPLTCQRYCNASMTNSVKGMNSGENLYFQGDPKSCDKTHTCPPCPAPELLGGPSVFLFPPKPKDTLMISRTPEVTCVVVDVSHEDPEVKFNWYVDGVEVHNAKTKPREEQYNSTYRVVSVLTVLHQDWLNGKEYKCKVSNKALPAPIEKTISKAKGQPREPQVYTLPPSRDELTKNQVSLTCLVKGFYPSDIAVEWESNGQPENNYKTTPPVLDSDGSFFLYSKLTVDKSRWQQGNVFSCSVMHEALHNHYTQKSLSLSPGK
T1 sequence (Q02223 with tags, fused parts or gaps limits assumed): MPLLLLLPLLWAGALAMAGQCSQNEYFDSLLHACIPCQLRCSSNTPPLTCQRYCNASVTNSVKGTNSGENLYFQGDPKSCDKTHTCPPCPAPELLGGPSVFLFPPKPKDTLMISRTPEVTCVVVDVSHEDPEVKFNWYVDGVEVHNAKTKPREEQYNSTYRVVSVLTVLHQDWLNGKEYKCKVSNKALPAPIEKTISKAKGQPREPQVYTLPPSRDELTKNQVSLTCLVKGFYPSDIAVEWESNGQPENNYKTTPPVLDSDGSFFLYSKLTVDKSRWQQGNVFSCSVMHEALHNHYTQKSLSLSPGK

On to CA8 humanised J6M0, for which the ka in experiment [1] (Run 2, Human in house BCMA, ProteOn, 25° C., in M-1s-1 (unit assumed)) was determined as 2.40E+05; in experiment [2] (in M-1s-1 (unit assumed)) it was 6.23E+05; in experiment [3] (in M-1s-1 (unit assumed)) it was 5.64E+04; in experiment [4] (25° C., Experiment 1, in M-1s-1 (unit assumed)) it was 1.01E+06; in [4] (37° C., Experiment 1, in M-1s-1 (unit assumed)), 2.12E+06; in [4] (37° C., Experiment 2, in M-1s-1 (unit assumed)), 3.78E+06. Further, the kd in experiment [1] (Run 2, Human in house BCMA, ProteOn, 25° C., in s-1 (unit assumed)) came out at 7.40E−05; in [2] (in s-1 (unit assumed)), 5.37E−05; in experiment [3] (in s-1 (unit assumed)), 3.18E−04; in experiment [4] (25° C., Experiment 1, in s-1 (unit assumed)), 1.22E−04; in experiment [4] (37° C., Experiment 1, in s-1 (unit assumed)), 1.48E−03; in [4] (37° C., Experiment 2, in s-1 (unit assumed)), 1.88E−03.

On to J6M0-MMAF, for which the “anti-tumour activity compared with unconjugated J6M0 and J6M0-MMAE” value in experiment [5] (50 ug or 100 ug twice weekly for 2 weeks) is “increased anti-tumour activity over both unconjugated J6M0 antibody and J6M0-MMAE conjugate”. The “effect on NCI-H929 tumours” value in experiment [5] (100 ug dose twice weekly for 2 weeks, intraperitoneal, tumours 200 mm^3 at start) is “elimination of tumours”. The recurrence of tumour result in experiment [5] (mice maintained for 40 days after the last dose) is recorded as “no recurrence of tumour”.

B1: CA8 humanised J9M2: humanised CA8 anti-BCMA antibody, VH J9 (SEQ ID NO:29) + VL M2 (SEQ ID NO:35) (antibody, V domains shown)
VH: QVQLVQSGAEVKKPGSSVKVSCKGSGYTFTNYWMHWVRQAPGQGLEWIGATYRGHSDTYYNQKFKGRATLTADTSTSTAYMELSSLRSEDTAVYYCTRGAIYDGYDVLDNWGQGTLVTVSS
VL: DIQLTQSPSSLSASVGDRVTITCSASQDISNYLNWYQQKPGKAPELVIYYTSNLHSGVPSRFSGSGSGTDYTLTISSLQPEDFATYYCQQYRKLPWTFGQGTKLEIKR
modifications: Humansed antibody sequence
As to B1, the “dose dependent binding to ARH77-hBCMA 10B5 cells by FACS (MFI)” value in [6] is reported as “all antibodies tested apart from J9M2 bound”. For the same molecule, the “dose dependent binding to H929 cells by FACS (MFI)” value in experiment [7] is “all antibodies tested apart from J9M2 bound”. The off rate entry in experiment [1] is “beyond the sensitivity of the assay”. Further, the KD result in experiment [8] is on record as “No”. In experiment [9], the ka is 4.88E+05 and the kd stood at 2.52E−04.

B2: CA8 humanised J9M1: humanised CA8 anti-BCMA antibody, VH J9 (SEQ ID NO:29) + VL M1 (SEQ ID NO:33) (antibody, V domains shown)
VH: B1 VH
VL: B1 VL with L4M, E45K, V47L
modifications: Humansed antibody sequence
For the molecule B2, the off rate result in experiment [1] is listed as “beyond the sensitivity of the assay”. In [8], this molecule showed a ka of 1.96E+07 and a kd of 3.50E−04. In experiment [9], this molecule came in with a ka of 6.77E+05 and a kd of 2.99E−04.

B3: CA8 humanised J7M1: humanised CA8 anti-BCMA antibody, VH J7 (SEQ ID NO:25) + VL M1 (SEQ ID NO:33) (antibody, V domains shown)
VH: B1 VH with G24A, I48M, A68V, L70I, T74K, T97A
VL: B1 VL with L4M, E45K, V47L
modifications: Humansed antibody sequence
On to B3, for which the off rate result in experiment [1] is on record as “beyond the sensitivity of the assay”. In [8], this molecule displayed a ka of 2.35E+06 and a kd of 1.31E−04. In experiment [9], this molecule displayed a ka of 3.70E+05 and a kd of 3.91E−04.

B4: S307118G03 H5L1: humanised S307118G03, VH H5 (SEQ ID NO:87) + VL L1 (SEQ ID NO:91) (antibody, V domains shown)
VH: QVQLVQSGAEVKKPGSSVKVSCKASGYTFTDYYMKWVRQAPGQGLEWIGEIYPNNGGITYNQKFKGRATLTVDKSTSTAYMELSSLRSEDTAVYYCANGYEFDYWGQGTLVTVSS
VL: B1 VL with L4M, D28G, E45K, V47L, N53S, R92S
modifications: Humansed antibody sequence
Consider B4, for which the KD result in experiment [1] (setting [10]) is “No Analysable Binding”; in experiment [2], “V weak signal”; in experiment [3] it was “No”.

B5: S307118G03 H5L0: humanised S307118G03, VH H5 (SEQ ID NO:87) + VL L0 (SEQ ID NO:89) (antibody, V domains shown)
VH: B4 VH
VL: B1 VL with L4M, D28G, E45K, V47L, N53S, Y71F, R92S
modifications: Humansed antibody sequence
Regarding B5, the KD result in [1] (setting [10]) is listed as “No Analysable Binding”; in [2] it was “V weak signal”; in experiment [3], “No”.

B6: CA8 humanised J7M2: humanised CA8 anti-BCMA antibody, VH J7 (SEQ ID NO:25) + VL M2 (SEQ ID NO:35) (antibody, V domains shown)
VH: B1 VH with G24A, I48M, A68V, L70I, T74K, T97A
VL: B1 VL
modifications: Humansed antibody sequence
Regarding B6, the off rate result in experiment [1] is reported as “beyond the sensitivity of the assay”. In [8], the ka came out at 2.37E+06 and the kd is on record as 1.35E−04. In [9], this molecule showed a ka of 3.46E+05 and a kd of 4.47E−04.
